One series addresses Fyn (UniProt P06241). Nature of the series: phosphorylation enrichment, bacterial display (enrichment ratio); higher = better substrate or ligand; peptides without Tyr show the background.
For another series, the system named is Fer (mouse). The description is as above.
The target of another series is Fes (UniProt P07332). The series is described as above.
The target of the next series is EPHB1 (UniProt P54762). The description is as above.
A further series concerns the target Hck (UniProt P08631). The series is described as above.
The target of the next series is FGFR3 (UniProt P22607). The series is described as above.
For a further series, the system named is c-Abl (mouse). Described as above.
A further series has as its target FGFR1 (UniProt P11362). Described as above.
In a further series the target is Jak2 (UniProt O60674). Described as above.
A further series has as its system AncSZ. Described as above.
The next series relates to c-Src. Described as above.
A further series has as its target MERTK (UniProt Q12866). Described as above.
For another series, the target named is EPHB2 (UniProt P29323). The description is as above.
For another series, the target named is c-Src SH2. Nature of the series: SH2 binding enrichment of the phosphorylated peptide, bacterial display (enrichment ratio); higher = better substrate or ligand; peptides without Tyr show the background.
Another series concerns the target Grb2 SH2 (UniProt P62993). Described as above.
A further series deals with SHP2-C SH2. Described as above.
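For SH2 binding enrichment of the phosphorylated peptide, bacterial display in this document: peptide library displayed on the E. coli surface as eCPX fusions, selected cells deep-sequenced, score is each peptide's frequency after selection divided by its frequency in the input.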
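For phosphorylation enrichment, bacterial display in this document: 11-residue human phosphosite peptides and single-mutation variants displayed on the E. coli surface, counted by deep sequencing, each peptide's frequency after selection divided by its frequency in the unselected input library; frequency after pTyr selection over input frequency; kinase dosed for 20-30% of maximal phosphorylation in three min.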

FGFR3, sequence (P22607 whole entry, looked up): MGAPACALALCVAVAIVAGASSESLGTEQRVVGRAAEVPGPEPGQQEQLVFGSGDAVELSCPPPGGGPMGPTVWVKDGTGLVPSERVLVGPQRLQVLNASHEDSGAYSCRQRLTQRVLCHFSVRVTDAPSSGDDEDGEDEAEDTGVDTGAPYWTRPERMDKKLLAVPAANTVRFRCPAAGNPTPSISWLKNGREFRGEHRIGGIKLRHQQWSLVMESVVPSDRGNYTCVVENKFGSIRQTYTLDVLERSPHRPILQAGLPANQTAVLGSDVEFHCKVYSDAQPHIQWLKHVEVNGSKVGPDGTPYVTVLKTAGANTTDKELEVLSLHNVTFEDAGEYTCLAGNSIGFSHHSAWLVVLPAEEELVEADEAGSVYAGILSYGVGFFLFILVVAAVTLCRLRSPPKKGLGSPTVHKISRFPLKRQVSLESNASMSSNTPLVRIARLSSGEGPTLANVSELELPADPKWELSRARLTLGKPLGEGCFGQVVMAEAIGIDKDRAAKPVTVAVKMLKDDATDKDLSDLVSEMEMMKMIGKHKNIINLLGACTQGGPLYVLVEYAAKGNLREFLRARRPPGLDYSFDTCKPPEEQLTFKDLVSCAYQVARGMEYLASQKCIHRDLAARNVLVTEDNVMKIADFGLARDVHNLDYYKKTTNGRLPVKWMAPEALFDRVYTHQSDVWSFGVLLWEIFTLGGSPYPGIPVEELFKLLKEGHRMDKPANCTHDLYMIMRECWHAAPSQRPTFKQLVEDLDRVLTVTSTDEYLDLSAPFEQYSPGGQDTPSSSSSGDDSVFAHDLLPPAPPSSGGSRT
Fyn, sequence (P06241 whole entry, looked up): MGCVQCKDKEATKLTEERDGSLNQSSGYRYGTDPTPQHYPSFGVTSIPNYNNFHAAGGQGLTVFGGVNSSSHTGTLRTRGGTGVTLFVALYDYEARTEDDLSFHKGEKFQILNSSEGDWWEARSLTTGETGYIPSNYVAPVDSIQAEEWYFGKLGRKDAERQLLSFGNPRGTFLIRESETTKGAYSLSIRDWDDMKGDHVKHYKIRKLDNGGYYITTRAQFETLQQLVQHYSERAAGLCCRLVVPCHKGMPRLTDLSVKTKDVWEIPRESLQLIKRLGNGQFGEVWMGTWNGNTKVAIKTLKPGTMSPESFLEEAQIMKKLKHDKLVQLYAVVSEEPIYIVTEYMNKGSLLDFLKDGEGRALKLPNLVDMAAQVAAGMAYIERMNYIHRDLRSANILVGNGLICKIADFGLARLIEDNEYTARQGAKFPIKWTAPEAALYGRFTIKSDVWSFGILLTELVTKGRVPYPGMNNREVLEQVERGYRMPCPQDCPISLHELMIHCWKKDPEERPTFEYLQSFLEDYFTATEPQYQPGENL
Hck, sequence (P08631 whole entry, looked up): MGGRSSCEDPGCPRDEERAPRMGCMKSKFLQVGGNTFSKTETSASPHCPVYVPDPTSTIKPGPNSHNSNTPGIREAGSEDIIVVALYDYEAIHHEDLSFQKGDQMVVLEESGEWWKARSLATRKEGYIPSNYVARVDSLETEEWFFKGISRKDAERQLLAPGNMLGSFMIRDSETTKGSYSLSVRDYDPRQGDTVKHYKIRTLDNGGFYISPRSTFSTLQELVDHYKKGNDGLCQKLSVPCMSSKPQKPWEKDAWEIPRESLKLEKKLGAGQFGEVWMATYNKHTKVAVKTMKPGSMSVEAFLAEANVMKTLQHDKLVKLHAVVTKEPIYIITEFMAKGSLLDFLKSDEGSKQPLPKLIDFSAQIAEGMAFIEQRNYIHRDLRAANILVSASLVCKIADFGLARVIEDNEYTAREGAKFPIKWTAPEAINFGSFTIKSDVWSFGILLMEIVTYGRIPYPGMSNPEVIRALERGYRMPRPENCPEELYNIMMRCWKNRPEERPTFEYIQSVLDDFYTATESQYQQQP
Grb2 SH2, sequence (P62993 whole entry, looked up): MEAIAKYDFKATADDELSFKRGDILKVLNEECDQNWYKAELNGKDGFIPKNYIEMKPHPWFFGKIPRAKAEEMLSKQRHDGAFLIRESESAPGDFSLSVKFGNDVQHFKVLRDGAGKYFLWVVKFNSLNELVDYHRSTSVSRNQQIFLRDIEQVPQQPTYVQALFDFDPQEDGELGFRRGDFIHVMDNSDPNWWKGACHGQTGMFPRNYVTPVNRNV
EPHB1, sequence (P54762 whole entry, looked up): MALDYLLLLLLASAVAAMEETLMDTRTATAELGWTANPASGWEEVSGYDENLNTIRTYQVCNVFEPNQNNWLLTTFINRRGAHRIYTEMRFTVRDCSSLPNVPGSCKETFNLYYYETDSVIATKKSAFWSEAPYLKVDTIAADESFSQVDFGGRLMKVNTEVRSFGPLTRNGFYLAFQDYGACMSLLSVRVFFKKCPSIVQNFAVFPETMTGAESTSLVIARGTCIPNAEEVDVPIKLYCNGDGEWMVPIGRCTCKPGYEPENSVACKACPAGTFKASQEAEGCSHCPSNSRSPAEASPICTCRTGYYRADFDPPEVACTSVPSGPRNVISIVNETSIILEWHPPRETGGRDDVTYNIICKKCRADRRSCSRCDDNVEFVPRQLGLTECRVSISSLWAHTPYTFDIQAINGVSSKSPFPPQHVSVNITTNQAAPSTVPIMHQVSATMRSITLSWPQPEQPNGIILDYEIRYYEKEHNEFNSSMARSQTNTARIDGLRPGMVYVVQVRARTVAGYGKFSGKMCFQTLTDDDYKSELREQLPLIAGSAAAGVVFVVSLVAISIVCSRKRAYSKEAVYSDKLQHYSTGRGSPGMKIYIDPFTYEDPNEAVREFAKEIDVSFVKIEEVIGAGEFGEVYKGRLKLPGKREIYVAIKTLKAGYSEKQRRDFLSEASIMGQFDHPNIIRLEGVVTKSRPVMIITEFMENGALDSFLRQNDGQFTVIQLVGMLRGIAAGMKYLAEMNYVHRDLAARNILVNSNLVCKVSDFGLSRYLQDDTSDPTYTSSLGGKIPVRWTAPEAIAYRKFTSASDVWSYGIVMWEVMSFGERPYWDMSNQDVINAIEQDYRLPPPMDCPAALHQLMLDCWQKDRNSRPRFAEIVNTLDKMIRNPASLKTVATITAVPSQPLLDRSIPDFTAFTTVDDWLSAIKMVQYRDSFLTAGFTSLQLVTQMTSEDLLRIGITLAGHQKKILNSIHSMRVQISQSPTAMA
Fes, sequence (P07332 whole entry, looked up): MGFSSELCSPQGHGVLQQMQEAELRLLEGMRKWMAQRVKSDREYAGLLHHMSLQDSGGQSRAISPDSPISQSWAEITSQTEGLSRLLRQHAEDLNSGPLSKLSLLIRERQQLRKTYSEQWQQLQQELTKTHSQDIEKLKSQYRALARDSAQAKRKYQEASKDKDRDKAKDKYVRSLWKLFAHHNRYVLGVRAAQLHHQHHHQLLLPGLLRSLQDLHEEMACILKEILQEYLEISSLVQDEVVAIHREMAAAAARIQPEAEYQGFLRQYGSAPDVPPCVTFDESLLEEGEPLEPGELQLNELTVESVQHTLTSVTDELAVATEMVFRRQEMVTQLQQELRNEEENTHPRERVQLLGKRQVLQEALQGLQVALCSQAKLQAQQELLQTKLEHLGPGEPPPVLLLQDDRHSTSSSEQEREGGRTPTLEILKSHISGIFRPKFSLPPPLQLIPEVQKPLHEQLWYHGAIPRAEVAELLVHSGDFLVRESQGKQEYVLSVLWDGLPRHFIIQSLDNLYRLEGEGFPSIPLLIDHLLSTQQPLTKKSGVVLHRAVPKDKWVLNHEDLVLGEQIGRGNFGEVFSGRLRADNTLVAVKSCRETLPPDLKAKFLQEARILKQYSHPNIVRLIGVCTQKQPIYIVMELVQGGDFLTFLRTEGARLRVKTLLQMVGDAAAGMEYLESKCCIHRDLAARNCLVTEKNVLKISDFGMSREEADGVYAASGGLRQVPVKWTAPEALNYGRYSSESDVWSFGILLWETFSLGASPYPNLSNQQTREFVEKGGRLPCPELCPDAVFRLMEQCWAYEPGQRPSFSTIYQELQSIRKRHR
Jak2, sequence (O60674 whole entry, looked up): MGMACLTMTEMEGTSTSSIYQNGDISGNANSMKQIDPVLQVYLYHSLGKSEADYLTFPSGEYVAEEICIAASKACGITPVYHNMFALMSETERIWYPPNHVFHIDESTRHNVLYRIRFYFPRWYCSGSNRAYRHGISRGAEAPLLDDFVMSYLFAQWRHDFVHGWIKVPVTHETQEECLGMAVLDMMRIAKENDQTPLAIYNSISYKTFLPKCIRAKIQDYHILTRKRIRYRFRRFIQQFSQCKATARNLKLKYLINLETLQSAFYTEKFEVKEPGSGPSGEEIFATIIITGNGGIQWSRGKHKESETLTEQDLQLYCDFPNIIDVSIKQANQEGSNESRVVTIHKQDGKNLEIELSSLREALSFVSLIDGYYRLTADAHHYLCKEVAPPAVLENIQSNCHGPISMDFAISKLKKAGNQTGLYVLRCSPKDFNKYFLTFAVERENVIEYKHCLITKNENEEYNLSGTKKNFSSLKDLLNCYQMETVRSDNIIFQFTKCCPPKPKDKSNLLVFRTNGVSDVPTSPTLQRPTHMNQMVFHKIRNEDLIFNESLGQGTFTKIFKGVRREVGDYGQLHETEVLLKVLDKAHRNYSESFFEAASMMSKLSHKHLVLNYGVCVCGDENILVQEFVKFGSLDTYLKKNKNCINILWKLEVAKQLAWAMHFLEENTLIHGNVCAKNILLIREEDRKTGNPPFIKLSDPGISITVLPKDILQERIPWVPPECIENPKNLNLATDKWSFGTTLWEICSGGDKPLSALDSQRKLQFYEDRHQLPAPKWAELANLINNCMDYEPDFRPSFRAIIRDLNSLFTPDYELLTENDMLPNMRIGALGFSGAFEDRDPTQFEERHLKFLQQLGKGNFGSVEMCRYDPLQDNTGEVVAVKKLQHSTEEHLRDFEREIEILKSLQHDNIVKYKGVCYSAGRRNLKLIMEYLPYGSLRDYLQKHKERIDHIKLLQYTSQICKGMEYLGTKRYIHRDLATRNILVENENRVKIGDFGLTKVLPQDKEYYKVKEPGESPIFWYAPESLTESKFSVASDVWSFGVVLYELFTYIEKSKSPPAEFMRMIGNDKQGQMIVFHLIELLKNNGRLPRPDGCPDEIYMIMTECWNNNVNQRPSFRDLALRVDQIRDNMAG

As to TDLAYYLVCKG [ASL_Y376_R379C], the phosphorylation enrichment with Fyn amounted to 0.689; with Fer (mouse) it was 0.581; with Fes it was 1.57; with EPHB1 it was 0.883; with Hck, 0.75; with FGFR3, 2.33. For the same sequence, the phosphorylation enrichment worked out at 0.903 with c-Abl (mouse); 2.39 with FGFR1; 1.74 with Jak2; 1.46 in the series with AncSZ; 0.825 with c-Src; 0.79 with MERTK. Also, the phosphorylation enrichment in the series with EPHB2 amounted to 0.66. Moreover, the SH2 binding enrichment in the series with c-Src SH2 was determined as 0.461; with Grb2 SH2 it was 0.959; in the series with SHP2-C SH2, 0.829.
As for EEQKKYYNATK [SCN5A_Y1494_M1498T], the phosphorylation enrichment with Fyn is 0.467; in the series on Fer (mouse), 0.421; with Fes, 0.673; with EPHB1 it was 0.543; with Hck, 0.478; in the series with FGFR3 it was 0.554. The phosphorylation enrichment was 0.407 in the series with c-Abl (mouse); 1.29 with FGFR1; 0.476 in the series with Jak2; 0.59 in the series with AncSZ; 0.363 in the series with c-Src; 0.411 with MERTK. Also, the phosphorylation enrichment in the series with EPHB2 was 0.521. The values for the SH2 binding enrichment with c-Src SH2, with Grb2 SH2 and with SHP2-C SH2 were 0.559, 1.01 and 0.482, respectively.
As for TLQIMYGCDVG [HLA-A_Y123_I119L], the phosphorylation enrichment stood at 0.528 with Fyn; 0.654 in the series on Fer (mouse); 1.34 with Fes; 0.594 with EPHB1; 0.625 in the series with Hck; 0.887 with FGFR3. Also, the phosphorylation enrichment came out at 0.997 with c-Abl (mouse); 0.619 in the series with FGFR1; 1.4 with Jak2; 1.23 in the series on AncSZ; 0.673 in the series on c-Src; 0.459 with MERTK. The phosphorylation enrichment with EPHB2 came out at 0.606. Moreover, the SH2 binding enrichment in the series with c-Src SH2 is 0.546; with Grb2 SH2 it was 0.851; with SHP2-C SH2, 0.577.
As to DIPIRYSITGV [CDH4_Y205], the phosphorylation enrichment stood at 0.447 with Fyn; 0.402 with Fer (mouse); 0.827 in the series with Fes; 0.391 with EPHB1; 0.45 in the series with Hck; 0.478 in the series with FGFR3. Moreover, the phosphorylation enrichment in the series on c-Abl (mouse) turned out to be 0.641; with FGFR1, 0.444; with Jak2, 0.85; in the series on AncSZ, 0.822; in the series with c-Src, 0.367; in the series with MERTK it was 0.405. For the same sequence, the phosphorylation enrichment in the series with EPHB2 was 0.474. Further, the figures for the SH2 binding enrichment in the series with c-Src SH2, in the series with Grb2 SH2 and with SHP2-C SH2 were 0.53, 0.774 and 0.972, respectively.
RLLVVYPSTQR [HBB_Y36_W38S]: the phosphorylation enrichment amounted to 0.802 in the series with Fyn; 0.7 with Fer (mouse); 1.75 with Fes; 0.602 in the series with EPHB1; 1.17 with Hck; 0.94 with FGFR3. The phosphorylation enrichment is 0.899 in the series with c-Abl (mouse); 1.07 with FGFR1; 1.04 in the series with Jak2; 1.19 in the series with AncSZ; 0.646 in the series with c-Src; 0.753 with MERTK. Besides, the phosphorylation enrichment with EPHB2 came to 0.931. Further, the results for the SH2 binding enrichment with c-Src SH2, with Grb2 SH2 and in the series with SHP2-C SH2 were 1.47, 2.08 and 2.26, respectively.
As to EDEGLYTVRVP [MYOM3_Y343_M344T], the phosphorylation enrichment is 3.52 in the series with Fyn; 1.38 in the series on Fer (mouse); 1.24 with Fes; 0.766 in the series with EPHB1; 4.08 with Hck; 0.939 with FGFR3. Further, the phosphorylation enrichment was determined as 0.737 with c-Abl (mouse); 0.633 with FGFR1; 1.04 with Jak2; 1.64 in the series with AncSZ; 3.4 in the series with c-Src; 1.84 in the series with MERTK. In the series with EPHB2, the phosphorylation enrichment came to 0.692. In addition, the SH2 binding enrichment is 0.488 with c-Src SH2, 0.83 with Grb2 SH2 and 0.617 in the series with SHP2-C SH2.
As to RNLDTYQKRLR [PLA2G2D_Y126], the phosphorylation enrichment in the series with Fyn turned out to be 0.452; with Fer (mouse), 0.307; with Fes, 0.61; in the series with EPHB1, 0.831; with Hck, 0.55; in the series with FGFR3 it was 0.484. Moreover, the phosphorylation enrichment in the series with c-Abl (mouse) is 0.762; in the series with FGFR1, 0.373; with Jak2 it was 0.661; in the series on AncSZ, 0.617; with c-Src, 0.463; with MERTK, 0.474. Moreover, in the series with EPHB2, the phosphorylation enrichment worked out at 0.279. Further, the SH2 binding enrichment with c-Src SH2 came to 0.629; in the series with Grb2 SH2 it was 0.918; with SHP2-C SH2, 0.504.
As to EERNTYVNTTL [TEK_Y1102_K1100N], the phosphorylation enrichment was determined as 0.446 in the series with Fyn; 0.404 in the series with Fer (mouse); 0.83 in the series with Fes; 0.955 with EPHB1; 0.53 with Hck; 0.454 with FGFR3. For the same sequence, the phosphorylation enrichment in the series on c-Abl (mouse) came out at 0.638; with FGFR1, 0.515; with Jak2, 0.551; with AncSZ, 0.694; in the series with c-Src, 0.43; in the series with MERTK, 0.675. Besides, the phosphorylation enrichment with EPHB2 was 0.531. Further, the SH2 binding enrichment is 1.45 with c-Src SH2, 20.6 in the series with Grb2 SH2 and 1.22 with SHP2-C SH2.
